Experimental findings from patent publication US20200283483A1 (TECHNISCHE UNIVERSITAET MUENCHEN, published 2020) are described below.

In test [1] the target is T1, human αvβ3-integrin (human, UniProt P06756 31-992; P05106 27-718).
T1 construct: soluble integrin bought from R&D; also called integrin αvβ3
Put plainly: solid-phase competition ELISA, soluble αvβ3 on coated vitronectin.

Test [2] concerns the target T2, human αvβ5-integrin (human, UniProt P06756 31-992; P18084 24-719, limits assumed).
T2 construct: soluble integrin bought from Millipore
As to the kind of experiment: solid-phase competition ELISA, soluble αvβ5 on coated vitronectin.

Test [3] addresses T3, human αvβ6-Integrin (human, UniProt P06756 31-992; P18564 22-707).
T3 construct: soluble integrin bought from R&D
Put plainly: solid-phase competition ELISA, soluble αvβ6 on coated LAP (TGF-β).

Square brackets hold non-standard residues; d marks the D form. dNMeF = CN[C@H](Cc1ccccc1)C(=O)O; NMeA = CN[C@@H](C)C(=O)O

T3 sequence (P06756 31-992 limits assumed, chain 1 of 2): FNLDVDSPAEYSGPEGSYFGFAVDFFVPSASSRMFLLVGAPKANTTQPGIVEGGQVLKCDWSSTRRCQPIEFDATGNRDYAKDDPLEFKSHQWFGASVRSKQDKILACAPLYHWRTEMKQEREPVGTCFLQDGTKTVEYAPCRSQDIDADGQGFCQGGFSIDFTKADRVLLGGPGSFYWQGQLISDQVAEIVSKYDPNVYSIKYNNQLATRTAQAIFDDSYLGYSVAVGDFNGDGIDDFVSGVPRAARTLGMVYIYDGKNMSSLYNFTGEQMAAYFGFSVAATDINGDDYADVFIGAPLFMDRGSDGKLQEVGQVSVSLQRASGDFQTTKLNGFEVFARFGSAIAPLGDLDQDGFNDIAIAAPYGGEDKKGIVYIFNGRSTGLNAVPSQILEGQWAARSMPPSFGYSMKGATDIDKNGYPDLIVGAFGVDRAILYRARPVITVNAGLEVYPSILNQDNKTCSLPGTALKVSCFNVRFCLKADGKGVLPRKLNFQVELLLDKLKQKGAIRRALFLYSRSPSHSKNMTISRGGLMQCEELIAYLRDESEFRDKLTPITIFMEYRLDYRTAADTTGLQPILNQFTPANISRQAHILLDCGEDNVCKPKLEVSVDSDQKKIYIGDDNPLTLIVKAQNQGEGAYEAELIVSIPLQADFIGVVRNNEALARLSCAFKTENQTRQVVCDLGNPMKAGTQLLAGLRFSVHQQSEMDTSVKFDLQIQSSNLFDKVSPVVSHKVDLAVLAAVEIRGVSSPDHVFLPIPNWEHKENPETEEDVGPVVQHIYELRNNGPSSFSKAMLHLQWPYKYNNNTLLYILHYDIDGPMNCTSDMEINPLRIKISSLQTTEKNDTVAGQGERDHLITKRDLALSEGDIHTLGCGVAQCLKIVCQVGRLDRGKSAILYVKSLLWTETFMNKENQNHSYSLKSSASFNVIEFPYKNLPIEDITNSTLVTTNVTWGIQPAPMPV
T3 sequence (P18564 22-707 limits assumed, chain 2 of 2): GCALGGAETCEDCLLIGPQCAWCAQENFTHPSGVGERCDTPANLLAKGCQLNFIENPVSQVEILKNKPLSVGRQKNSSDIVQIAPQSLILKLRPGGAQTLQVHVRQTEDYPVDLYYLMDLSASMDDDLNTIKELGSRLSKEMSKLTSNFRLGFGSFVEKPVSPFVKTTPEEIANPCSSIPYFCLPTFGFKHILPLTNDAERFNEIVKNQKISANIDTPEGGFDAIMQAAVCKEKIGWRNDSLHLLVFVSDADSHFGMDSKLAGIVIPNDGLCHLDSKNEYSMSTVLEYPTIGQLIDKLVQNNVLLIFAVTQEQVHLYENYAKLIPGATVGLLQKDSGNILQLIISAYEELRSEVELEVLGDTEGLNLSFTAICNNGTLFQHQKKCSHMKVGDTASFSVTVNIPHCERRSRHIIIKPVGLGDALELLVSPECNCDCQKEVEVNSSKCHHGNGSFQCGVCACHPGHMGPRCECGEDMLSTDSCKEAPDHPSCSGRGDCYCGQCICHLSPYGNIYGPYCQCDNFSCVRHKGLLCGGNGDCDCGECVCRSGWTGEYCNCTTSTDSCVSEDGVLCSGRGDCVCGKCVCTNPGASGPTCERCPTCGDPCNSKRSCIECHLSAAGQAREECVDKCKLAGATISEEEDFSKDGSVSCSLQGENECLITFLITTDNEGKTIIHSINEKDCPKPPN
T1 sequence (P06756 31-992 limits assumed, chain 1 of 2): as the sequence (P06756 31-992 limits assumed, chain 1 of 2) above
T1 sequence (P05106 27-718 limits assumed, chain 2 of 2): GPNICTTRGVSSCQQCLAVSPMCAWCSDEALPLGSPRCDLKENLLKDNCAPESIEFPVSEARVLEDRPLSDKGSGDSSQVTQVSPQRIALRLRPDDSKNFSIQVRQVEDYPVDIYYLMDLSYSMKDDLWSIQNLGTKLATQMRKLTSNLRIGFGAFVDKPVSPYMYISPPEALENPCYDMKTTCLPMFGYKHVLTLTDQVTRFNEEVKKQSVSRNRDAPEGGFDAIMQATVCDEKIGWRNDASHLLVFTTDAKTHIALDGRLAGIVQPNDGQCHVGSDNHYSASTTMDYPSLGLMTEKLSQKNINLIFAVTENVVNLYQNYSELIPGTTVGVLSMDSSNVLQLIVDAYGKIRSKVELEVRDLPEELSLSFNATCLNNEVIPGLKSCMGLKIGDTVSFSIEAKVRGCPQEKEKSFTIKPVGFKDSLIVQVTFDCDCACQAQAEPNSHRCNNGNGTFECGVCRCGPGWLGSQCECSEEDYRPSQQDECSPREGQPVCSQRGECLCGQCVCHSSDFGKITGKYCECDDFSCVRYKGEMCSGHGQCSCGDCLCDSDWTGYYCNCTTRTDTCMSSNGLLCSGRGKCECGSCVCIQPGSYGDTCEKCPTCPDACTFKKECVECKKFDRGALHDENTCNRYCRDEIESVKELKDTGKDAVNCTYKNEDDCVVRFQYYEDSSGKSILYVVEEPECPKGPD
T2 sequence (P06756 31-992 limits assumed, chain 1 of 2): as the sequence (P06756 31-992 limits assumed, chain 1 of 2) above
T2 sequence (P18084 24-719 limits assumed, chain 2 of 2): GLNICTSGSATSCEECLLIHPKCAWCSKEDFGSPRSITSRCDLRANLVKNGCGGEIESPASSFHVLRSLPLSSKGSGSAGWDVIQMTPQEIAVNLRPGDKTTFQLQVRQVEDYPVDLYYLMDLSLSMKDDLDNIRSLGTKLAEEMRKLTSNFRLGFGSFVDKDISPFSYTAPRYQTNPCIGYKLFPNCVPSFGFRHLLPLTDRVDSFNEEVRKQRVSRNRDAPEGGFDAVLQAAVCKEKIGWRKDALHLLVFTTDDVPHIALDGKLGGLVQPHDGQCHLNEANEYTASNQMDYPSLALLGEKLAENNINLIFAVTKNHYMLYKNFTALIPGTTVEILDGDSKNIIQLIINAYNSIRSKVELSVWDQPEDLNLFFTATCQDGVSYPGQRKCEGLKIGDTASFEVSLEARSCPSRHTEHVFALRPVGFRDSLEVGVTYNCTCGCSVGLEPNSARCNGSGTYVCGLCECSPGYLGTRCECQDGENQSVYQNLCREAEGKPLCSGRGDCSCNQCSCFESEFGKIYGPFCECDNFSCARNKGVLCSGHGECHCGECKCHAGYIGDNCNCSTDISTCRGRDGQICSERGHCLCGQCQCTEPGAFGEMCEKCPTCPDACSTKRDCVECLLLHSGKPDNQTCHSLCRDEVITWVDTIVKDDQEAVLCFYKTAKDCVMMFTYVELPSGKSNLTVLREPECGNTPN

As for cyclo([dNMeF]RGDA[NMeA]) (scaffold NMe(1,6)) [peptide #30 c(*fRGDA*A)], the results for the IC50 in test [1], in test [2] and in test [3] were 0.6 nM, 145 nM and 120 nM, respectively.
